{
  "source": "paper PMC4338599",
  "about": "(Science (New York, N.Y.), 2015)",
  "proteins": {"B1": {"name": "PAXX residues 1-145 (PAXX^1-145) (domain or fragment)", "chain": "MDPLSPPLCTLPPGPEPPRFVCYCEGEESGEGDRGGFNLYVTDAAELWSTCFTPDSLAALKARFGLSAAEDITPRFRAACEQQAVALTLQEDRASLTLSGGPSALAFDLSKVPGPEAAPRLRALTLGLAKRVWSLERRLAAAEET"}},
  "target": "the molecule itself",
  "assay": "native MS",
  "data": [
    {"protein": "B1", "values": [
      {"measurement": "stoichiometry N", "value": 2}
    ]}
  ]
}
